Source: the supplement of paper PMC7125110
± gives the standard error. This sample holds only a part of the variants without activity.

B1: glmS ribozyme (parent)
chain: AUAAAAGCGCCAGAACUACAGAAAUGUAGUUGACGAGGAGGAGGUUUAUCGAAUUUUCGGCGGAUGCCUCCAAA

What was measured:
Conditions in all cases: with glucosamine-6-phosphate
[1] = variants of: B1; test: self-cleavage kobs at 640 uM GlcN6P; higher = faster cleavage; RNA array
In short: (§1)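 Weighted Michaelis–Menten fits across concentrations supplied kcat and KM, based on kobs from one- or two-exponential decay fits to normalised per-tile medians. The data came from barcoded ribozyme variants transcribed in situ by E. coli RNA polymerase on sequenced MiSeq chips and tracked at 37 °C by a hybridised Cy3 probe. Glucosamine-6-phosphate (40 μM to 10 mM) in HEPES/KCl/Mg(OAc)2 buffer was flowed in.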

[2] = variants of: B1; test: self-cleavage kobs at 2500 uM GlcN6P; higher = faster cleavage; RNA array
In short: as §1

[3] = variants of: B1; test: self-cleavage kobs at 10000 uM GlcN6P; higher = faster cleavage; RNA array
In short: as §1

Row | Variant | self-cleavage kobs at 640 uM GlcN6P [1] | self-cleavage kobs at 2500 uM GlcN6P [2] | self-cleavage kobs at 10000 uM GlcN6P [3]
1 | A14C A36G U49C | < 1e-05 s⁻¹ | < 1e-05 s⁻¹ | 
2 | G7A G40U C58U | < 1e-05 s⁻¹ | < 1e-05 s⁻¹ | 
3 | G7U G32C G38C A42U C50U | < 1e-05 s⁻¹ |  | 
4 | A6U C10U G35C A48U G63A | < 1e-05 s⁻¹ |  | 
5 | A15U U46G A53U C67U | 6.64e-05 ± 1.4e-05 s⁻¹ |  | 
6 | C10U G38U U69A | 8.22e-05 ± 2.4e-05 s⁻¹ |  | 
7 | U46G A53G G66U | 7.95e-05 ± 2e-05 s⁻¹ | 0.000148 ± 5.2e-05 s⁻¹ | 
8 | G9U G29C G41A | < 1e-05 s⁻¹ | < 1e-05 s⁻¹ | < 1e-05 s⁻¹
9 | A33G C34U G40A A42U C68A | < 1e-05 s⁻¹ | < 1e-05 s⁻¹ | 
10 | A42G U45C G59C G62U C68U | < 1e-05 s⁻¹ |  | 
11 | G37C A53C G60A | < 1e-05 s⁻¹ |  | 
12 | C8U U30A A39U | < 1e-05 s⁻¹ | < 1e-05 s⁻¹ | 
13 | A12G A15C G40U | < 1e-05 s⁻¹ |  | 
14 | G38A A42G G62U | < 1e-05 s⁻¹ |  | 
15 | A12G U55A | 0.000161 ± 2.2e-05 s⁻¹ | 0.000248 ± 4e-05 s⁻¹ | 0.00094 ± 8.5e-05 s⁻¹
16 | C34G U49A G66A | < 1e-05 s⁻¹ |  | 
17 | U30G U31G U49G U69G | 7.71e-05 ± 2.2e-05 s⁻¹ | 6.45e-05 ± 2.7e-05 s⁻¹ | 
18 | A6U G40C C61U G62C | < 1e-05 s⁻¹ |  | 
19 | A36C U46G U54A U55G | < 1e-05 s⁻¹ |  | 
20 | A6C U31C G62A | < 1e-05 s⁻¹ |  | 
21 | G38A G40C A42C A72U | < 1e-05 s⁻¹ |  | 
22 | G35U G59U G60C G62U | < 1e-05 s⁻¹ |  | 
23 | C11G G44U U46G U47A G59A A64U C67A | < 1e-05 s⁻¹ |  | 

Row | Variant | self-cleavage kobs at 640 uM GlcN6P [1] | self-cleavage kobs at 2500 uM GlcN6P [2] | self-cleavage kobs at 10000 uM GlcN6P [3]
24 | C10G A15C | < 1e-05 s⁻¹ |  | < 1e-05 s⁻¹
25 | C16A U54C G59U | < 1e-05 s⁻¹ |  | 
26 | C16G U30C C50U | < 1e-05 s⁻¹ |  | 
27 | A12C G32C U57C C58U | < 1e-05 s⁻¹ | < 1e-05 s⁻¹ | 
28 | A14U C61A G66A | < 1e-05 s⁻¹ |  | 
29 | A15G G66U C71U | 0.000559 ± 0.00011 s⁻¹ | 0.00142 ± 0.00041 s⁻¹ | 
30 | C11A G37U A64G | < 1e-05 s⁻¹ |  | 
31 | A39U A42C C50G | < 1e-05 s⁻¹ |  | < 1e-05 s⁻¹
32 | G43A U47A A53C G59C | < 1e-05 s⁻¹ | < 1e-05 s⁻¹ | 
33 | C8G G13A U56C | < 1e-05 s⁻¹ |  | 
34 | G13C G29A G40C | < 1e-05 s⁻¹ |  | 
35 | G51U G63A C68G | 9.2e-05 ± 3e-05 s⁻¹ |  | 
36 | A6C A39U G41C A52U | < 1e-05 s⁻¹ | < 1e-05 s⁻¹ | 
37 | G9U C19A G62U G63U | < 1e-05 s⁻¹ |  | 
38 | G9A C11A A14G C34G G35U A36U A48U U55C C67G U69C | < 1e-05 s⁻¹ |  | 
39 | C16G G44U G51U C61U | < 1e-05 s⁻¹ | < 1e-05 s⁻¹ | 
40 | G38A G41C U54G C61A | < 1e-05 s⁻¹ | < 1e-05 s⁻¹ | 
41 | G38C G41U C67U | < 1e-05 s⁻¹ |  | 
42 | A14G A33G G41U A48C U69G | < 1e-05 s⁻¹ | < 1e-05 s⁻¹ | 
43 | A6U G13U G37U A48U U69G | 9.26e-05 ± 2.7e-05 s⁻¹ |  | 
44 | U49C G63C C67G C68G | < 1e-05 s⁻¹ |  | 
45 | A12G A39U A42C | 8.45e-05 ± 2.4e-05 s⁻¹ | 0.000119 ± 2.7e-05 s⁻¹ | 
46 | U47C A52G G66A | 5.64e-05 ± 1.2e-05 s⁻¹ | 0.000112 ± 2.4e-05 s⁻¹ | 

Row | Variant | self-cleavage kobs at 640 uM GlcN6P [1] | self-cleavage kobs at 2500 uM GlcN6P [2] | self-cleavage kobs at 10000 uM GlcN6P [3]
47 | G29A A33U G44U | < 1e-05 s⁻¹ |  | 
48 | A42U U69C | 0.0106 ± 0.0031 s⁻¹ | 0.00357 ± 0.0013 s⁻¹ | 
49 | G32U U55A C71A | 9.04e-05 ± 2.8e-05 s⁻¹ | 8.28e-05 ± 3.5e-05 s⁻¹ | 
50 | A6C G7A G29A C71U | < 1e-05 s⁻¹ | < 1e-05 s⁻¹ | 
51 | U31C G37A | 0.000113 ± 2.3e-05 s⁻¹ | 0.000119 ± 1.8e-05 s⁻¹ | 0.000359 ± 3.4e-05 s⁻¹
52 | C8G C11G A14C A39G C50G | 8.19e-05 ± 2.8e-05 s⁻¹ |  | 
53 | G9U U56A G63U A64U | < 1e-05 s⁻¹ |  | 
54 | C8U A15C G32U | < 1e-05 s⁻¹ | < 1e-05 s⁻¹ | 
55 | G29A U47G A53G C61U U65A | < 1e-05 s⁻¹ |  | 
56 | U31A U56G C58G | 9.04e-05 ± 1.6e-05 s⁻¹ | 0.000252 ± 5e-05 s⁻¹ | 
57 | G29C A33U G35C A52U | < 1e-05 s⁻¹ | < 1e-05 s⁻¹ | 
58 | G32A G40U A48U | < 1e-05 s⁻¹ |  | 
59 | A33G G43U G59U A64G | < 1e-05 s⁻¹ | < 1e-05 s⁻¹ | 
60 | C58G G59U C68G | 4.54e-05 ± 1.7e-05 s⁻¹ |  | 
61 | C10A A15G G32U C70G | 0.000197 ± 7.6e-05 s⁻¹ |  | 
62 | A6U A39C U56C C67G | < 1e-05 s⁻¹ |  | 
63 | C8U C16G A52U U65G G66A | < 1e-05 s⁻¹ | < 1e-05 s⁻¹ | 
64 | C10A A36U G62A | < 1e-05 s⁻¹ |  | 
65 | A53U U55C U65A | 0.00055 ± 9.7e-05 s⁻¹ | 0.000947 ± 0.00018 s⁻¹ | 0.00137 ± 0.00021 s⁻¹
66 | G9C U30A U49C U56G | < 1e-05 s⁻¹ |  | 
67 | A39U U49C C68G | < 1e-05 s⁻¹ | < 1e-05 s⁻¹ | < 1e-05 s⁻¹
68 | C10A U69A | 0.00013 ± 1.9e-05 s⁻¹ | 3.89e-05 ± 1.5e-05 s⁻¹ | 
